# Assay results published in US10369195B2, “Methods and compositions for preventing and treating damage to the heart” (MandalMed, Inc., priority 2016, dated 2019).
# “Also recorded” adds a separate entry of the source.
# How the values were obtained:
# [1] = tested on: rat ischemia-reperfusion model of MI; experiment: Intraventricular (LV) pressure / hemodynamic measurements after ischemia-reperfusion MI; type: in vivo; conditions: for LVEDP, benefit relative to PBS / LVSP, benefit relative to PBS / mean ABP, benefit relative to PBS: 8 weeks post-MI, Gal-3C 600 μg/day days 4-10, losartan 8 mg/kg/day in drinking water 56 days
# Description: (§1) Pre-filled and primed mini-osmotic pumps were implanted a few minutes before surgical induction of MI and Gal-3C treatment continued for 7 days (denoted as “early window”) as in the pilot study described above. The effect of treatment on cardiac function was evaluated by serial echocardiography on day 0 pre-MI, 2 and 28 days post-MI, and LV pressure measurement at 28 days. For the early window, groups consisted of sham surgery with PBS, sham with 600 μg/day Gal-3C, MI with PBS, MI with 200 μg/day Gal-3C, and MI with 600 μg/day Gal-3C.
# Serial echocardiography was performed at 2, 28, and 56 days (8 weeks) post-MI and terminal intraventricular pressure catheter measurements were obtained. The effect on cardiac function from losartan was compared to the effect of Gal-3C that included data from the 12 animals in the Gal-3C and the 12 animals in the vehicle-only group that were presented in FIG. 9 and FIG. 10. […] The results described herein indicate that treatment with Gal-3C post-MI would be more beneficial on recovery and preservation of heart function compared to treatment with losartan or another ARB alone.
# [2] = tested on: rat ischemia-reperfusion model of MI; experiment: Serial echocardiography (ejection fraction, ESV, EDV) after ischemia-reperfusion MI; type: in vivo; conditions: for EF, benefit relative to PBS: out to 8 weeks post-MI, Gal-3C 600 μg/day days 4-10, losartan 8 mg/kg/day in drinking water 56 days
# Description: Animal experiments to test the therapeutic potential of Gal-3C in the preservation of post-MI cardiac function were performed using surgical induction of MI in rodents and functional evaluation of treatment as previously described (61-66). To most accurately model cardiac damage experienced by MI patients, a well-established ischemia-reperfusion procedure was used in which the left anterior descending coronary artery (LAD) of rats was occluded for 25 min followed by restoration of blood flow (67). This standard MI model is more clinically relevant than permanent LAD ligation models because the reperfusion experienced after post-MI angioplasty not only limits the size of the infarct, but paradoxically introduces free radical damage, and is well validated as a model for post-MI heart failure experimental therapies (68).
# Experiments were performed according to the UCSF guidelines for rodent survival surgery and the Guide for the Care and Use of Laboratory Animals of the US National Institutes of Health. Male Sprague-Dawley rats (age 10-12 weeks) were anesthetized with isoflurane (2%), received analgesics (buprenorphine (0.1 mg/kg), subcutaneous injection) pre- and post-operation, and underwent ischemia-reperfusion MI involving temporary (25 minutes) occlusion of the left anterior descending coronary artery (LAD) to produce regional moderate myocardial ischemia.
# Briefly, rats were ventilated to a small animal volume-controlled ventilator (Harvard Rodent Ventilator, Model 683, South Natick, Mass.), and the heart was exposed via thoracotomy. Occlusion proceeds with a 7-0 nonabsorbable surgical suture passed under the LAD 2-3 mm from tip of the normally positioned left auricle and tied around a 1-mm section of PE-50 tubing, tightening with an artery clamp to temporarily occlude the LAD. After occlusion for 25 minutes, reperfusion was allowed to the formerly ischemic bed. The chest was then closed with removal of excess fluid and air from the chest cavity. All animals were monitored post-operation until they became ambulatory. The mortality during MI procedure was 12%.
# The highest dose, 600 μg/rat/day, and the lowest dose, 200 μg/rat/day, were chosen for continued study, representing approximately 2- and 5.5-fold higher doses based on body surface area of rats than was used in the multiple myeloma study of Gal-3C in mice (70). Groups of rats (n=10) were treated with low (200 μg/day) and high (600 μg/day doses of Gal-3C or with PBS-lactose (vehicle control) administered over 0-6 days post-MI (“early window”; primed pumps were implanted several minutes before the MI procedure on day 0). These groups were designed to be sufficiently powered to detect potentially statistically significant improvement from Gal-3C treatment.
# as §1
# In a subsequent experiment, the high dose Gal-3C and the PBS control were administered by Alzet pump over a delayed delivery window of from 4 days until 10 days post-MI (denoted as “delayed window”) to rats that had been subjected to the same ischemia-reperfusion procedure as described in Example 2 above. Delayed treatment might better enable fibrotic repair of the infarct while preventing wall rupture. […]
# [3] = tested on: rat ischemia-reperfusion model of MI; experiment: Interstitial (non-scar) border zone fibrosis from Sirius red-stained heart sections; type: in vivo; conditions: delayed window, 600 μg/day
# Description: (§2) After rats in the delayed treatment study were euthanized, hearts were harvested and sectioned for Masson's trichrome and Sirius red staining with quantitative image analysis to assess remodeling. Rather than using an optimized approach for infarct size measurement in permanent ligation rat models (64), it was confirmed that in the ischemia-reperfusion MI model, a volumetric infarct sizing approach (i.e., % area in the tissue sections that was scarred) would be more accurate. Using this approach for analysis of Masson's trichrome staining, it was shown that the infarct size was considerably (>2-fold) reduced in Gal-3C-treated (600 μg/day) rats, a difference that achieved significance with Gal-3C treatment in the delayed window (FIG. 8A).
# Quantitative histology of Sirius red staining for interstitial fibrosis was performed on tissue sections with the most scar from each heart as described above in Example 3 using ImageJ.
# [4] = tested on: rat ischemia-reperfusion model of MI; experiment: Infarct size from Masson's trichrome-stained heart sections (volumetric, % area scarred); type: in vivo; conditions: 600 μg/day
# Description: as §2
# As described in Example 3 above, rats were euthanized at 8 weeks post-MI, hearts were harvested and sectioned for Masson's trichrome and Sirius red staining with quantitative image analysis using a volumetric infarct sizing approach (i.e., % area in the tissue sections that was scarred) for analysis of Masson's trichrome staining to calculate the size of the primary infarct.
# [5] = tested on: rat ischemia-reperfusion model of MI; experiment: Pilot dose-finding study: hydroxyproline assay of collagen in the left ventricle after ischemia-reperfusion MI; type: in vivo; conditions: 100, 200, 400, 600 μg/day by osmotic pump from day 0 for 7 days; vs vehicle; n=2-3
# Description: Animal experiments to test the therapeutic potential of Gal-3C in the preservation of post-MI cardiac function were performed using surgical induction of MI in rodents and functional evaluation of treatment as previously described (61-66). To most accurately model cardiac damage experienced by MI patients, a well-established ischemia-reperfusion procedure was used in which the left anterior descending coronary artery (LAD) of rats was occluded for 25 min followed by restoration of blood flow (67). […]
# Briefly, rats were ventilated to a small animal volume-controlled ventilator (Harvard Rodent Ventilator, Model 683, South Natick, Mass.), and the heart was exposed via thoracotomy. […] All animals were monitored post-operation until they became ambulatory. […]
# A pilot dose-finding study was performed to determine Gal-3C levels reducing fibrosis, with collagen levels in heart tissue extracts as surrogate endpoints. […] It was determined that an equivalent to the mouse dose for use in rats of 250-300 g/body weight based on m^2 of average body surface area of the two species as approximately 105 μg/day. […]
# [6] = tested on: Primary human cardiac fibroblasts; experiment: TGFβ1-induced differentiation of primary cardiac fibroblasts to myofibroblasts (immunoblots of SMA and tensin 1); type: cell-based
# Description: Galectin-3 was purified on lactosyl-sepharose from recombinant E. coli pelleted from 40 L of culture, collagenase digested, and then Gal-3C was isolated on lactosyl sepharose as previously described (41). Primary human cardiac fibroblasts (Cell Applications, San Diego, Calif.) were purchased and cultured as per the vendor's recommendations. 200,000 cells at passage 2-3 were cultured in 6-well plates until confluent, starved for 48 h and then induced to differentiate to myofibroblasts by treatment with […] TGFβ1 for 48-72 h. Varying concentrations of Gal-3C were also incubated with the cells. The cells were harvested, lysates prepared, and total protein quantified with a BCA assay (Pierce/Thermo). A total of […] protein was analyzed per condition by immunoblots using primary Abs against smooth muscle actin (SMA) and tensin 1 (Sigma-Aldrich).
# [7] = tested on: xenograft model of human multiple myeloma; conditions: mice; 30 μg/day by ALZET mini-osmotic pumps; cited from earlier work
# [8] = Gal-3C 600 μg/day days 4-10 vs losartan 8 mg/kg/day 56 days, 15/group
# [9] = delayed window, 600 μg/day, 8 weeks, vs controls, n=12/group
# [10] = delayed window (4-10 days post-MI), 600 μg/day, 28 days post-MI, vs vehicle
# [11] = delayed window Gal-3C, 8 weeks (day 56) post-MI, expanded groups 15/group (FIG. 12)
# [12] = delayed window, 600 μg/day, 8 weeks (day 56) post-MI, vs vehicle, n=12/group
# [13] = early window (0-6 days post-MI), 200 and 600 μg/day, 28 days post-MI, vs PBS
# [14] = TGFβ1 5 or 15 mg/ml for 48-72 h, varying concentrations of Gal-3C
molecule,measurement,setting,value
"CCCCc1nc(Cl)c(CO)n1Cc1ccc(-c2ccccc2-c2nn[nH]n2)cc1 [losartan, reference compound]","LVEDP, benefit relative to PBS",[1]; 15/group,no significant benefit
same,"LVSP, benefit relative to PBS",[1]; 15/group,no significant benefit
same,"mean ABP, benefit relative to PBS",[1]; 15/group,no significant benefit
same,"EF, benefit relative to PBS",[2]; 15/group,no significant benefit
"Gal-3C: N-terminally truncated form of full length galectin-3, lacking the amino-terminal domain but retaining carbohydrate binding ability; 143 carboxy-terminal residues, SEQ ID NO: 3 (protein) GAPAGPLIVPYNLPLPGGVVPRMLITILGTVKPNANRIALDFQRGNDVAFHFNPRFNENNRRVIVCNTKLDNNWGREERQSVFPFESGKPFKIQVLVEPDHFKVAVNDAHLLQYNHRVKKLNEISKLGISGDIDITSASYTMI","LVEDP, benefit relative to PBS",[1]; 15/group,statistically significant benefit
same,"LVSP, benefit relative to PBS",[1]; 15/group,statistically significant benefit
same,"mean ABP, benefit relative to PBS",[1]; 15/group,statistically significant benefit
same,"LVEDP, benefit relative to losartan",[1]; [8],statistically significant benefit
same,"LVSP, benefit relative to losartan",[1]; [8],statistically significant benefit
same,dP/dt max and dP/dt min,"[1]; delayed window Gal-3C, 8 weeks, expanded groups 15/group (FIG. 13)",did not reach significance
same,LVEDP,[1]; [9],reached significance
same,LVSP,[1]; [9],reached significance
same,dP/dt max,[1]; [9],did not reach significance
same,dP/dt min,[1]; [9],did not reach significance
same,mean ABP,[1]; [9],reached significance
same,"all five hemodynamic parameters (mean ABP, LVSP, LVEDP, dP/dt max, dP/dt min)","[1]; delayed window, 600 μg/day, 28 days, vs vehicle",statistically significant improved
same,"intraventricular pressure measurement (mean ABP, LVSP, LVEDP, dP/dt max, dP/dt min)","[1]; early window, 200 and 600 μg/day, 28 days, vs PBS",did not reach statistical significance
same,"hemodynamic parameters (mean ABP, dp/dt max and min), 600 μg/day compared to 200 μg/day","[1]; early window, 28 days",Trends to greater improvement
same,reduction of interstitial fibrosis relative to vehicle-only controls,"[3]; 8 weeks post-MI, n=12/group",roughly 50%
same,"interstitial fibrosis (Sirius red), mean +/- SD","[3]; 8 weeks post-MI, n=12/group, P=0.0003 vs PBS-only",2.4+/−1.3%
same,reduction of interstitial fibrosis vs vehicle-only controls,[3]; 28 days post-MI,~65%
same,reduction of infarct size,"[4]; 28 days post-MI, significant in the delayed window",> 2 fold
same,infarct size vs PBS group,"[4]; delayed window, 8 weeks post-MI",significantly smaller
same,reduction of collagen levels in the LV (hydroxyproline assay),[5],20-35%
same,"EF, benefit relative to losartan",[2]; [8],statistically significant benefit
same,"ESV, benefit relative to losartan",[2]; [8],statistically significant benefit
same,ESV,[2]; [10],significant benefit; also recorded: statistically significant improvements
same,LV EDV,[2]; [10],no benefit
same,LV ejection fraction,[2]; [10],significant benefit; also recorded: statistically significant improvements
same,EDV,[2]; [11],beneficial effect
same,ESV,[2]; [11],beneficial effect
same,ejection fraction at 8 weeks compared to 4 weeks in treated animals,"[2]; delayed window, 600 μg/day",trend but not a statistically significant increase
same,EDV,[2]; [12],significant benefit
same,ESV,[2]; [12],beneficial effect
same,ejection fraction,[2]; [12],beneficial effect
same,LV end diastolic volume (EDV),[2]; [13],no benefit
same,end systolic volume (ESV),[2]; [13],profound benefit
same,left ventricular ejection fraction,[2]; [13],profound benefit
same,"cardiac function by echocardiography (ejection fraction, ESV, EDV)","[2]; early window treatment, 2 days post-MI",no benefit observed
same,"EF, benefit relative to PBS",[2]; 15/group,statistically significant benefit
same,differentiation to myofibroblasts induced by TGF1β (decreased expression of tensin-1 and SMA),"[6]; Gal-3C 4-20 μg/ml, TGF1β 15 μg/ml",inhibited the differentiation to myofibroblasts
same,"expression of SMA (smooth muscle actin), immunoblot",[6]; [14],inhibited expression
same,"expression of tensin 1, immunoblot",[6]; [14],inhibited expression
same,efficacy in xenograft model of human multiple myeloma,[7],good efficacy
